Laboratory results taken from the Human Domainome abundance scans (Beltran et al. 2025).
± gives the uncertainty stated by the source.

B1: Histone H1t, residues 44 to 112; numbered along this chain, P22492 (parent)
chain: VSKLITEALSVSQERVGMSLVALKKALAAAGYDVEKNNSRIKLSLKSLVNKGILVQTRGTGASGSFKLS

Variants of: B1
Test: abundance fitness (aPCA) (normalised: wild type 0, dead -1); higher = more abundant; growth selection in yeast, the domain comes from the species named
Conditions: Homo sapiens

Variant	abundance fitness
VSKLITEALSVSQERVGMSLVALKKALAAAGYDVEKNNSRIKLSLKSVVNKGILVQTRGTGASGSFKLS [L48V]	-0.536 ± 0.087
VSKLITEALSVSQERVGMSLVALKKALAAAGYDVEKNNSRIKLSLKSTVNKGILVQTRGTGASGSFKLS [L48T]	-0.592 ± 0.064
VSKLITEALSVSQERVGMSLVALKKALAAAGYDVEKNNSRIKLSLKSSVNKGILVQTRGTGASGSFKLS [L48S]	-0.801 ± 0.068
VSKLITEALSVSQERVGMSLVALKKALAAAGYDVEKNNSRIKLSLKSYVNKGILVQTRGTGASGSFKLS [L48Y]	-0.624 ± 0.061
VSKLITEALSVSQERVGMSLVALKKALAAAGYDVEKNNSRIKLSLKSWVNKGILVQTRGTGASGSFKLS [L48W]	-0.402 ± 0.15
VSKLITEALSVSQERVGMSLVALKKALAAAGYDVEKNNSRIKLSLKSLVNKYILVQTRGTGASGSFKLS [G52Y]	-0.425 ± 0.067
VSKLITEALSVSQERVGMSLVALKKALAAAGYDVEKNNSRIKLSLKSLVNKFILVQTRGTGASGSFKLS [G52F]	-0.184 ± 0.045
VSKLITEALSVSQERVGMSLVALKKALAAAGYDVEKNNSRIKLSLKSLVNKQILVQTRGTGASGSFKLS [G52Q]	-0.3 ± 0.048
VSKLITEALSVSQERVGMSLVALKKALAAAGYDVEKNNSRIKLSLKSLVNKSILVQTRGTGASGSFKLS [G52S]	-0.129 ± 0.033
VSKLITEALSVSQERVGMSLVALKKALAAAGYDVEKNNSRIKLSLKSLVNKWILVQTRGTGASGSFKLS [G52W]	-0.457 ± 0.2
VSKLITEALSVSQERVGMSLVALKKALAAAGYDVEKNNSRIKLSLKSLVNKHILVQTRGTGASGSFKLS [G52H]	-0.283 ± 0.05
VSKLITEALSVSQERVGMSLVALKKALAAAGYDVEKNNSRIKLSLKSLVNKLILVQTRGTGASGSFKLS [G52L]	-0.212 ± 0.03
VSKLITEALSVSQERVGMSLVALKKALAAAGYDVEKNNSRIKLSLKSLVNKKILVQTRGTGASGSFKLS [G52K]	-0.123 ± 0.066
VSKLITEALSVSQERVGMSLVALKKALAAAGYDVEKNNSRIKLSLKSLVNKIILVQTRGTGASGSFKLS [G52I]	-0.352 ± 0.054
VSKLITEALSVSQERVGMSLVALKKALAAAGYDVEKNNSRIKLSLKSLVNKNILVQTRGTGASGSFKLS [G52N]	-0.201 ± 0.079
VSKLITEALSVSQERVGMSLVALKKALAAAGYDVEKNNSRIKLSLKSLVNKTILVQTRGTGASGSFKLS [G52T]	-0.15 ± 0.036
VSKLITEALSVSQERVGMSLVALKKALAAAGYDVEKNNSRIKLSLKSLVNKMILVQTRGTGASGSFKLS [G52M]	-0.199 ± 0.052
VSKLITEALSVSQERVGMSLVALKKALAAAGYDVEKNNSRIKLSLKSLVNKCILVQTRGTGASGSFKLS [G52C]	-0.01 ± 0.13
VSKLITEALSVSQERVGMSLVALKKALAAAGYDVEKNNSRIKLSLKSLVNKRILVQTRGTGASGSFKLS [G52R]	-0.434 ± 0.099
VSKLITEALSVSQERVGMSLVALKKALAAAGYDVEKNNSRIKLSLKSLVNKPILVQTRGTGASGSFKLS [G52P]	-0.39 ± 0.032
VSKLITEALSVSQERVGMSLVALKKALAAAGYDVEKNNSRIKLSLKSLVNKDILVQTRGTGASGSFKLS [G52D]	-0.08 ± 0.45
VSKLITEALSVSQERVGMSLVALKKALAAAGYDVEKNNSRIKLSLKSLVTKGILVQTRGTGASGSFKLS [N50T]	0.018 ± 0.05
VSKLITEALSVSQERVGMSLVALKKALAAAGYDVEKNNSRIKLSLKSLVRKGILVQTRGTGASGSFKLS [N50R]	-0.082 ± 0.038
VSKLITEALSVSQERVGMSLVALKKALAAAGYDVEKNNSRIKLSLKSLVDKGILVQTRGTGASGSFKLS [N50D]	-0.105 ± 0.12
VSKLITEALSVSQERVGMSLVALKKALAAAGYDVEKNNSRIKLSLKSLVAKGILVQTRGTGASGSFKLS [N50A]	-0.037 ± 0.036
VSKLITEALSVSQERVGMSLVALKKALAAAGYDVEKNNSRIKLSLKSLVCKGILVQTRGTGASGSFKLS [N50C]	-0.311 ± 0.096

Variant	abundance fitness
VSKLITEALSVSQERVGMSLVALKKALAAAGYDVEKNNSRIKLSLKSLVPKGILVQTRGTGASGSFKLS [N50P]	-0.076 ± 0.036
VSKLITEALSVSQERVGMSLVALKKALAAAGYDVEKNNSRIKLSLKSLVGKGILVQTRGTGASGSFKLS [N50G]	-0.099 ± 0.04
VSKLITEALSVSQERVGMSLVALKKALAAAGYDVEKNNSRIKLSLKSLVLKGILVQTRGTGASGSFKLS [N50L]	-0.312 ± 0.043
VSKLITEALSVSQERVGMSLVALKKALAAAGYDVEKNNSRIKLSLKSLVKKGILVQTRGTGASGSFKLS [N50K]	-0.108 ± 0.12
VSKLITEALSVSQERVGMSLVALKKALAAAGYDVEKNNSRIKLSLKSLVWKGILVQTRGTGASGSFKLS [N50W]	-0.827 ± 0.077
VSKLITEALSVSQERVGMSLVALKKALAAAGYDVEKNNSRIKLSLKSLVYKGILVQTRGTGASGSFKLS [N50Y]	-0.092 ± 0.26
VSKLITEALSVSQERVGMSLVALKKALAAAGYDVEKNNSRIKLSLKSLVIKGILVQTRGTGASGSFKLS [N50I]	-0.398 ± 0.29
VSKLITEALSVSQERVGMSLVALKKALAAAGYDVEKNNSRIKLSLKSLVSKGILVQTRGTGASGSFKLS [N50S]	0.092 ± 0.041
VSKLITEALSVSQERVGMSLVALKKALAAAGYDVEKNNSRIKLSLKSLVMKGILVQTRGTGASGSFKLS [N50M]	-0.394 ± 0.096
VSKLITEALSVSQERVGMSLVALKKALAAAGYDVEKNNSRIKLSLKSLVFKGILVQTRGTGASGSFKLS [N50F]	-1.1 ± 0.3
VSKLITEALSVSQERVGMSLVALKKALAAAGYDVEKNNSRIKLSLKSLVHKGILVQTRGTGASGSFKLS [N50H]	-0.24 ± 0.11
VSKLITEALSVSQERVGMSLVALKKALAAAGYDVEKNNSRIKLSLKSLVVKGILVQTRGTGASGSFKLS [N50V]	-0.388 ± 0.046
VSKLITEALSVSQERVGMSLVALKKALAAAGYDVEKNNSRIKLSLKSLVQKGILVQTRGTGASGSFKLS [N50Q]	0.066 ± 0.068
VSKLITEALSVSQERVGMSLVALKKALAAAGYDVEKNNSRIKLSLKSLVEKGILVQTRGTGASGSFKLS [N50E]	0.027 ± 0.07
VSKLITEALSVSQERVGMSLVALKKALAAAGYDVEKNNSRIKLSLKSLSNKGILVQTRGTGASGSFKLS [V49S]	-0.423 ± 0.074
VSKLITEALSVSQERVGMSLVALKKALAAAGYDVEKNNSRIKLSLKSLQNKGILVQTRGTGASGSFKLS [V49Q]	-0.323 ± 0.079
VSKLITEALSVSQERVGMSLVALKKALAAAGYDVEKNNSRIKLSLKSLANKGILVQTRGTGASGSFKLS [V49A]	-0.336 ± 0.3
VSKLITEALSVSQERVGMSLVALKKALAAAGYDVEKNNSRIKLSLKSLMNKGILVQTRGTGASGSFKLS [V49M]	0.062 ± 0.044
VSKLITEALSVSQERVGMSLVALKKALAAAGYDVEKNNSRIKLSLKSLINKGILVQTRGTGASGSFKLS [V49I]	-0.026 ± 0.054
VSKLITEALSVSQERVGMSLVALKKALAAAGYDVEKNNSRIKLSLKSLPNKGILVQTRGTGASGSFKLS [V49P]	-0.434 ± 0.12
VSKLITEALSVSQERVGMSLVALKKALAAAGYDVEKNNSRIKLSLKSLRNKGILVQTRGTGASGSFKLS [V49R]	-0.262 ± 0.2
VSKLITEALSVSQERVGMSLVALKKALAAAGYDVEKNNSRIKLSLKSLDNKGILVQTRGTGASGSFKLS [V49D]	-0.416 ± 0.48
VSKLITEALSVSQERVGMSLVALKKALAAAGYDVEKNNSRIKLSLKSLNNKGILVQTRGTGASGSFKLS [V49N]	-0.54 ± 0.052
VSKLITEALSVSQERVGMSLVALKKALAAAGYDVEKNNSRIKLSLKSLYNKGILVQTRGTGASGSFKLS [V49Y]	-0.135 ± 0.049
VSKLITEALSVSQERVGMSLVALKKALAAAGYDVEKNNSRIKLSLKSLFNKGILVQTRGTGASGSFKLS [V49F]	-0.056 ± 0.033
VSKLITEALSVSQERVGMSLVALKKALAAAGYDVEKNNSRIKLSLKSLLNKGILVQTRGTGASGSFKLS [V49L]	0.052 ± 0.035

Variant	abundance fitness
VSKLITEALSVSQERVGMSLVALKKALAAAGYDVEKNNSRIKLSLKSLWNKGILVQTRGTGASGSFKLS [V49W]	-0.495 ± 0.34
VSKLITEALSVSQERVGMSLVALKKALAAAGYDVEKNNSRIKLSLKSLHNKGILVQTRGTGASGSFKLS [V49H]	-0.432 ± 0.083
VSKLITEALSVSQERVGMSLVALKKALAAAGYDVEKNNSRIKLSLKSLKNKGILVQTRGTGASGSFKLS [V49K]	-0.173 ± 0.044
VSKLITEALSVSQERVGMSLVALKKALAAAGYDVEKNNSRIKLSLKSLVNKGHLVQTRGTGASGSFKLS [I53H]	-0.095 ± 0.058
VSKLITEALSVSQERVGMSLVALKKALAAAGYDVEKNNSRIKLSLKSLVNKGFLVQTRGTGASGSFKLS [I53F]	-0.031 ± 0.042
VSKLITEALSVSQERVGMSLVALKKALAAAGYDVEKNNSRIKLSLKSLVNKGCLVQTRGTGASGSFKLS [I53C]	-0.153 ± 0.063
VSKLITEALSVSQERVGMSLVALKKALAAAGYDVEKNNSRIKLSLKSLVNKGGLVQTRGTGASGSFKLS [I53G]	-0.363 ± 0.13
VSKLITEALSVSQERVGMSLVALKKALAAAGYDVEKNNSRIKLSLKSLVNKGALVQTRGTGASGSFKLS [I53A]	-0.118 ± 0.058
VSKLITEALSVSQERVGMSLVALKKALAAAGYDVEKNNSRIKLSLKSLVNKGELVQTRGTGASGSFKLS [I53E]	-0.002 ± 0.053
VSKLITEALSVSQERVGMSLVALKKALAAAGYDVEKNNSRIKLSLKSLVNLGILVQTRGTGASGSFKLS [K51L]	-0.281 ± 0.031
VSKLITEALSVSQERVGMSLVALKKALAAAGYDVEKNNSRIKLSLKSLVNVGILVQTRGTGASGSFKLS [K51V]	-0.481 ± 0.042
VSKLITEALSVSQERVGMSLVALKKALAAAGYDVEKNNSRIKLSLKSLVNFGILVQTRGTGASGSFKLS [K51F]	-0.557 ± 0.091
VSKLITEALSVSQERVGMSLVALKKALAAAGYDVEKNNSRIKLSLKSLVNGGILVQTRGTGASGSFKLS [K51G]	-0.322 ± 0.097
VSKLITEALSVSQERVGMSLVALKKALAAAGYDVEKNNSRIKLSLKSLVNTGILVQTRGTGASGSFKLS [K51T]	-0.212 ± 0.051
VSKLITEALSVSQERVGMSLVALKKALAAAGYDVEKNNSRIKLSLKSLVNYGILVQTRGTGASGSFKLS [K51Y]	-1.1 ± 0.34
VSKLITEALSVSQERVGMSLVALKKALAAAGYDVEKNNSRIKLSLKSLVNWGILVQTRGTGASGSFKLS [K51W]	-0.557 ± 0.13
VSKLITEALSVSQERVGMSLVALKKALAAAGYDVEKNNSRIKLSLKSLVNMGILVQTRGTGASGSFKLS [K51M]	-0.258 ± 0.053
VSKLITEALSVSQERVGMSLVALKKALAAAGYDVEKNNSRIKLSLKSLVNSGILVQTRGTGASGSFKLS [K51S]	-0.161 ± 0.05
VSKLITEALSVSQERVGMSLVALKKALAAAGYDVEKNNSRIKLSLKSLVNQGILVQTRGTGASGSFKLS [K51Q]	-0.065 ± 0.041
VSKLITEALSVSQERVGMSLVALKKALAAAGYDVEKNNSRIKLSLKSLVNAGILVQTRGTGASGSFKLS [K51A]	-0.164 ± 0.056
VSKLITEALSVSQERVGMSLVALKKALAAAGYDVEKNNSRIKLSLKSLVNNGILVQTRGTGASGSFKLS [K51N]	-0.081 ± 0.11
VSKLITEALSVSQERVGMSLVALKKALAAAGYDVEKNNSRIKLSLKSLVNDGILVQTRGTGASGSFKLS [K51D]	-0.383 ± 0.13
VSKLITEALSVSQERVGMSLVALKKALAAAGYDVEKNNSRIKLSLKSLVNPGILVQTRGTGASGSFKLS [K51P]	-0.323 ± 0.036
VSKLITEALSVSQERVGMSLVALKKALAAAGYDVEKNNSRIKLSLKSLVNHGILVQTRGTGASGSFKLS [K51H]	-0.289 ± 0.14
VSKLITEALSVSQERVGMSLVALKKALAAAGYDVEKNNSRIKLSLKSLVNEGILVQTRGTGASGSFKLS [K51E]	0.016 ± 0.078
VSKLITEALSVSQERVGMSLVALKKALAAAGYDVEKNNSRIKLSLKSLVNRGILVQTRGTGASGSFKLS [K51R]	0.132 ± 0.062
